Data taken from paper PMC8067709, “Crystal Structure of the Epo1-Bem3 Complex for Bud Growth” (International Journal of Molecular Sciences, 2021).

B1: Bem3^CC1 (1-99) with 6xHis tag, isolated protein [Saccharomyces cerevisiae] / itself (parent)
chain: MTDNLTTTHGGSTTLELLAQYNDHRSKKDKSIEHIEKGTCSGKERNPSYDEIFTENIKLKLQVQEYETEIESLEKVIDMLQKNREASLEVVLEQVQNDS

Variants of: B1
Experiment: SEC-MALS (MALS coupled with gel filtration)
Details: read off a plot

Compared with MTDNLTTTHGGSTTLELLAQYNDHRSKKDKSIEHIEKGTCSGKERNPSYDEIFTEAIKLKLQVQEAATEIESLEKVIDMLQKNREASLEVVLEQVQNDS [chain 1 N56A Y66A E67A], MTDNLTTTHGGSTTLELLAQYNDHRSKKDKSIEHIEKGTCSGKERNPSYDEIFTENIKLKLQVQEAETEIESLEKVIDMLQKNREASLEVVLEQVQNDS [chain 1 Y66A] is higher in molar mass: 9.5 kDa for the first, 19 kDa for the second.

Compared with MTDNLTTTHGGSTTLELLAQYNDHRSKKDKSIEHIEKGTCSGKERNPSYDEIFTEAIKLKLQVQEYETEIESLEKVIDMLQKNREASLEVVLEQVQNDS [chain 1 N56A], MTDNLTTTHGGSTTLELLAQYNDHRSKKDKSIEHIEKGTCSGKERNPSYDEIFTENIKLKLQVQEYATEIESLEKVIDMLQKNREASLEVVLEQVQNDS [chain 1 E67A] is higher in molar mass: 17 kDa for the first, 20 kDa for the second.

First: MTDNLTTTHGGSTTLELLAQYNDHRSKKDKSIEHIEKGTCSGKERNPSYDEIFTEAIKLKLQVQEAETEIESLEKVIDMLQKNREASLEVVLEQVQNDS [chain 1 N56A Y66A]
Second: MTDNLTTTHGGSTTLELLAQYNDHRSKKDKSIEHIEKGTCSGKERNPSYDEIFTEAIKLKLQVQEYATEIESLEKVIDMLQKNREASLEVVLEQVQNDS [chain 1 N56A E67A]
The molar mass of the first is lower: 10 kDa for the first, 18 kDa for the second.
